Data from PMC9537153 (Nature Communications, 2022).
Where two headings read alike, the source gives them in different places.

B1: 42D7 (antibody, V domains shown)
VH: EVQMVESGGGVVRPGGSLGLSCTASGFTFSNFGIYWVRQAPGKGLEWVAFTRYDGRNKYYGDSVKGRFTISRDNSKNTLYLQMNRLRHEDTGTYYCAKVGATWASEPMDVWGKGTTVMVSS
VL: QSVLTQPPSVSGTPGQRVTIYCSGSTSNVGTNFVYWYKQLPGAAPKLLISRNTQRPSGVPDRFSGSKSGTSAFLAISGLRSEDEASYHCSVWDGDLTGLVFGGGTKLTVL
B2: 42C11 recombinant human IgG1 (hmAb 42C11) (antibody, V domains shown)
VH: QVQLVESGGGVVQPGGSLRLSCAASGFIFSSYSMHWVRQAPGKGLEWVAFIRYDGRREYYADSVKGRFTVSRDNIMNTVFLQMNNLRPEDTATYYCAKVGWTWVSEPADVWGEGATVTVSS
VL: QSVLTQPPSTSGTPGQGVTISCSGSRSNVGTNYVYWYQQIPGRAPKLLINRNTQRPSGVPVRFSGSKSGTTAFLAITGLRSEDEADYFCAVWDGDLSGVIFGGGTKVTVL
notes: IgG1; source: Expi293F cells, heavy- and light-chain plasmids co-transfected 1:1, purified (Protein A agarose, SEC)
B3: 42C11 Fab (naturally acquired human monoclonal antibody to p19) (Fab, V domains shown)
VH: B2 VH
VL: B2 VL
notes: source: Expi293F cells, transfected, purified from supernatant (Ni Sepharose Excel, SEC)
B4: 42A9 (antibody, V domains shown)
VH: QVQVVESGGGVVQPGGSLTLSCRASGFIFSDYGLHWVRQPPGKGLEWVALINYDGRNKYYADSVRGRFTISRDNSKNTLSLQMSSLRSGDTAIYFCARVGAKWASEPMDVWGRGTTVTVSS
VL: QSVLTQPPSASGTPGQRVTISCSGSTSNVGTNFVYWYHQRPGTAPKLLIYRNDERPSGVPDRISGSKSGASASLAISGLRSEDEGDYHCSAWDGSLRRLVFGGGTKLTVL
B5: 42C5 (antibody, V domains shown)
VH: EVQLVESGGGVVQPGGSLRLSCAASGFIFSSYSMHWVRQAPGKGLEWVAFIRYDGNRKYYGDSVKGRFTVSRDNSMDTLSLHMTNLRPEDTAIYYCARVGWTWVSEPVDVWGEGATVTVAS
VL: QSVLTQPPSASGTPGQGVSISCSGSRSNVGTNYVYWYQQVPGTAPKLLILRNTQRPSGVPDRFSGSKSGSSASLAISGLRSADEGDYYCAVWDSNLDHVVFGGGTKVTVL

Assays:
[1] = target: T1, p19, C-terminal 19 kDa fragment of Merozoite Surface Protein 1 (MSP-1), Plasmodium falciparum 3D7 allele, … (Plasmodium falciparum 3D7)
T1 chain: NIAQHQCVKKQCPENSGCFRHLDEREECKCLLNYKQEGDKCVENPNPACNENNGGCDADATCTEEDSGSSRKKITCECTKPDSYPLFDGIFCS

[2] = target: T2, full-length Merozoite Surface Protein 1 (MSP-1), Plasmodium falciparum 3D7 allele, non-glycosylated, His6 (Plasmodium falciparum 3D7, UniProt Q8I0U8)
T2 sequence (Q8I0U8 whole entry, looked up): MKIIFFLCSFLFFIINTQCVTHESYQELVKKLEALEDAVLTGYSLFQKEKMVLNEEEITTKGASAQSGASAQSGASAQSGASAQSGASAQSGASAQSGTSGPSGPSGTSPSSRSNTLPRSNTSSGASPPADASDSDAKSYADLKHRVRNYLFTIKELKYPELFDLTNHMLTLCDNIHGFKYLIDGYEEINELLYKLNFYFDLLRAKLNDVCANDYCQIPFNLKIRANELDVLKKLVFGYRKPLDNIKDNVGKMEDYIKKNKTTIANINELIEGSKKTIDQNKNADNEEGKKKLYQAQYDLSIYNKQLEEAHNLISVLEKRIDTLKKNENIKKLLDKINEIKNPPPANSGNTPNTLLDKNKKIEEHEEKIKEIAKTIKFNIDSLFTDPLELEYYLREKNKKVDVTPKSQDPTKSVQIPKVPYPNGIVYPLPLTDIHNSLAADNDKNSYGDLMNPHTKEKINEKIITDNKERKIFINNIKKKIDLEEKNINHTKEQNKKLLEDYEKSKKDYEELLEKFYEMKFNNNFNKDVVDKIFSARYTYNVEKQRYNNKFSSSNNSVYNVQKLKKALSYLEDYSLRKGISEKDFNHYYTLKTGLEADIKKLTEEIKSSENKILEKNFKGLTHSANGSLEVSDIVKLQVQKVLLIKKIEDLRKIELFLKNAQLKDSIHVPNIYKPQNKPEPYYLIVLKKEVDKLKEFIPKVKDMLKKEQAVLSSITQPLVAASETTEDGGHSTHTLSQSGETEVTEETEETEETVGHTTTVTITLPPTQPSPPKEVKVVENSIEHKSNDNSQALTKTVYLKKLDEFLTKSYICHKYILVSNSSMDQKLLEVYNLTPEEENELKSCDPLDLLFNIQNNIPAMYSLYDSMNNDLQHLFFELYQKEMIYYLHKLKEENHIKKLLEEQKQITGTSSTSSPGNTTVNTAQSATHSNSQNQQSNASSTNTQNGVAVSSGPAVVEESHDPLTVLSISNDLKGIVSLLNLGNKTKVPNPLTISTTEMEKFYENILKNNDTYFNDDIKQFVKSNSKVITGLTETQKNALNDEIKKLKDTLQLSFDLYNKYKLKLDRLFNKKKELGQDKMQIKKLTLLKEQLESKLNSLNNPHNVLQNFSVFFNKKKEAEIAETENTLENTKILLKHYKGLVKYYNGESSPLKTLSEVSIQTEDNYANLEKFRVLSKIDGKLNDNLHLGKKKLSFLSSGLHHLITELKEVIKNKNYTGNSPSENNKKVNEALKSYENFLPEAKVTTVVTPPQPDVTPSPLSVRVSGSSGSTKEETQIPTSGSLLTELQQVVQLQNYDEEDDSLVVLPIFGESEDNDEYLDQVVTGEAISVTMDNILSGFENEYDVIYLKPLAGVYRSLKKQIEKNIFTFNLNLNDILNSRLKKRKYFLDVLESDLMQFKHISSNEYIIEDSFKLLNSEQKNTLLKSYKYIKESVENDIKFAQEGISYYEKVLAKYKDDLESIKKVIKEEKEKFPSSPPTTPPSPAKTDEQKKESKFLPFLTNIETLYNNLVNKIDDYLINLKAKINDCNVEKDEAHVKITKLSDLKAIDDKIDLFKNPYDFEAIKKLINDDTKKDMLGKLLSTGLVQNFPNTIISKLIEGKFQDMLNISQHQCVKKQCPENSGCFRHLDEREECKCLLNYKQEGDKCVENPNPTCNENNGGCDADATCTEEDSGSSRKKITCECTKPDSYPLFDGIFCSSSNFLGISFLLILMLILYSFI

[3] = target: T2, full-length Merozoite Surface Protein 1 …; experiment: ELISA; conditions: both partners purified
[4] = target: T3, biotinylated p19 (3D7 allele, non-glycosylated) with C-terminal Avi-tag and His6 tag (Plasmodium falciparum 3D7, enzymatically biotinylated on a C-terminal AviTag); experiment: BLI; conditions: both partners purified
T3 chain: T1 chain

Binder	Kd [1]	binding result [2]	other results
B1	6.2 nM	binds	–
B2	–	–	binding result [3]: binds
B3	–	–	Kd [4]: 1.84 nM; koff [4]: 0.00047 s⁻¹; kon [4]: 255000 M⁻¹ s⁻¹
B4	0.73 nM	binds	–
B5	3.29 nM	binds	–
